Laboratory results taken from patent US20250163162A1 (SYNTHEKINE, published 2025).

Legend:
Experiment in all cases: cell-based or functional assay
IL10Rα/IL2Rγ receptor [1] = target: T1, IL10Rα/IL2Rγ receptor (human, UniProt Q13651 22-578; P31785 23-369)
T1 sequence (looked up) 1: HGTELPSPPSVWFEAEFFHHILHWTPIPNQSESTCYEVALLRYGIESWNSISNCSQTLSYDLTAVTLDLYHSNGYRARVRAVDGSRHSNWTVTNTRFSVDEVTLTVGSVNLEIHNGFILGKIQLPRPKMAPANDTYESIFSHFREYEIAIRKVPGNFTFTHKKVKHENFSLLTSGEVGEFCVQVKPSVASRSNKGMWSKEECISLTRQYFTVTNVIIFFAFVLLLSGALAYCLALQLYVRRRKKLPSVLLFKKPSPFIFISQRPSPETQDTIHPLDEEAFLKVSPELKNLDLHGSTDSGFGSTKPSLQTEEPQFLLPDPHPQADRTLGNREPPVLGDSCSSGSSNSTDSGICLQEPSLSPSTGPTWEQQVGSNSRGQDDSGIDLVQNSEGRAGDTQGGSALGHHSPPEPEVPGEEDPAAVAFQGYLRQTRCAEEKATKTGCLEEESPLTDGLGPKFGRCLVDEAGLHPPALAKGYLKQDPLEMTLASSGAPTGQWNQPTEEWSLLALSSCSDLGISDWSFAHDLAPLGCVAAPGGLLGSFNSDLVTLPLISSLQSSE
T1 sequence (looked up) 2: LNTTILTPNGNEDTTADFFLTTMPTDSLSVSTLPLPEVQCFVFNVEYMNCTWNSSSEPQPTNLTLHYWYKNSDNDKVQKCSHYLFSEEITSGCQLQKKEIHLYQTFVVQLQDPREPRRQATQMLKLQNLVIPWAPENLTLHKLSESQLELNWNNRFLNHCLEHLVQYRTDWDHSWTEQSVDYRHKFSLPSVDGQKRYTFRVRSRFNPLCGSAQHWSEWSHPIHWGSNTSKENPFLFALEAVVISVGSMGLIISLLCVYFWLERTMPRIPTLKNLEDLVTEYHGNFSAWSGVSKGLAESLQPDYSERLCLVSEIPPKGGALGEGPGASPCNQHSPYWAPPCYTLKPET

IL10Rα/IL2Rγ receptor [2] = target: T1, IL10Rα/IL2Rγ receptor; remark: listed apart in the source
IL10Rα/IL2Rγ receptor [3] = target: T1, IL10Rα/IL2Rγ receptor; remark: listed apart in the source
IL10Rα/IL2Rγ receptor [4] = target: T1, IL10Rα/IL2Rγ receptor; remark: listed apart in the source
IL10Rα/IL2Rγ receptor [5] = target: T1, IL10Rα/IL2Rγ receptor; remark: listed apart in the source
IL10Rα/IL2Rγ receptor [6] = target: T1, IL10Rα/IL2Rγ receptor; remark: listed apart in the source

pSTAT3 MFI, B cells, 100 nM (unstimulated 1045) (IL10Rα/IL2Rγ receptor [1]): 1140 MFI | pSTAT3 MFI, CD4+ T cells, 100 nM (unstimulated 1778) (IL10Rα/IL2Rγ receptor [1]): 6240 MFI | pSTAT3 MFI, CD8+ T cells, 100 nM (unstimulated 1288) (IL10Rα/IL2Rγ receptor [1]): 4220 MFI | pSTAT3 MFI, Monocytes, 100 nM (unstimulated 1787) (IL10Rα/IL2Rγ receptor [1]): 1940 MFI | pSTAT3 MFI, NK cells, 100 nM (unstimulated 1149) (IL10Rα/IL2Rγ receptor [1]): 1700 MFI | pSTAT3 MFI, B cells, 0.0001 nM (unstimulated 1193.5) (IL10Rα/IL2Rγ receptor [2]): 1110 MFI | pSTAT3 MFI, B cells, 0.001 nM (unstimulated 1193.5) (IL10Rα/IL2Rγ receptor [2]): 1120 MFI | pSTAT3 MFI, B cells, 0.01 nM (unstimulated 1193.5) (IL10Rα/IL2Rγ receptor [2]): 1110 MFI | pSTAT3 MFI, B cells, 0.1 nM (unstimulated 1193.5) (IL10Rα/IL2Rγ receptor [2]): 1110 MFI | pSTAT3 MFI, B cells, 1 nM (unstimulated 1193.5) (IL10Rα/IL2Rγ receptor [2]): 1170 MFI | pSTAT3 MFI, B cells, 10 nM (unstimulated 1193.5) (IL10Rα/IL2Rγ receptor [2]): 1340 MFI | pSTAT3 MFI, B cells, 100 nM (unstimulated 1193.5) (IL10Rα/IL2Rγ receptor [2]): 1280 MFI | pSTAT3 MFI, CD4 T cells, 0.0001 nM (unstimulated 1887) (IL10Rα/IL2Rγ receptor [3]): 1800 MFI | pSTAT3 MFI, CD4 T cells, 0.001 nM (unstimulated 1887) (IL10Rα/IL2Rγ receptor [3]): 1860 MFI | pSTAT3 MFI, CD4 T cells, 0.01 nM (unstimulated 1887) (IL10Rα/IL2Rγ receptor [3]): 1860 MFI | pSTAT3 MFI, CD4 T cells, 0.1 nM (unstimulated 1887) (IL10Rα/IL2Rγ receptor [3]): 2250 MFI | pSTAT3 MFI, CD4 T cells, 1 nM (unstimulated 1887) (IL10Rα/IL2Rγ receptor [3]): 4600 MFI | pSTAT3 MFI, CD4 T cells, 10 nM (unstimulated 1887) (IL10Rα/IL2Rγ receptor [3]): 6800 MFI | pSTAT3 MFI, CD4 T cells, 100 nM (unstimulated 1887) (IL10Rα/IL2Rγ receptor [3]): 6200 MFI | pSTAT3 MFI, NK cells, 0.0001 nM (unstimulated 1315) (IL10Rα/IL2Rγ receptor [4]): 1230 MFI | pSTAT3 MFI, NK cells, 0.001 nM (unstimulated 1315) (IL10Rα/IL2Rγ receptor [4]): 1260 MFI | pSTAT3 MFI, NK cells, 0.01 nM (unstimulated 1315) (IL10Rα/IL2Rγ receptor [4]): 1250 MFI | pSTAT3 MFI, NK cells, 0.1 nM (unstimulated 1315) (IL10Rα/IL2Rγ receptor [4]): 1260 MFI | pSTAT3 MFI, NK cells, 1 nM (unstimulated 1315) (IL10Rα/IL2Rγ receptor [4]): 1530 MFI | pSTAT3 MFI, NK cells, 10 nM (unstimulated 1315) (IL10Rα/IL2Rγ receptor [4]): 2000 MFI | pSTAT3 MFI, NK cells, 100 nM (unstimulated 1315) (IL10Rα/IL2Rγ receptor [4]): 1940 MFI | pSTAT3 MFI, CD8 T cells, 0.0001 nM (unstimulated 1446) (IL10Rα/IL2Rγ receptor [5]): 1400 MFI | pSTAT3 MFI, CD8 T cells, 0.001 nM (unstimulated 1446) (IL10Rα/IL2Rγ receptor [5]): 1420 MFI | pSTAT3 MFI, CD8 T cells, 0.01 nM (unstimulated 1446) (IL10Rα/IL2Rγ receptor [5]): 1420 MFI | pSTAT3 MFI, CD8 T cells, 0.1 nM (unstimulated 1446) (IL10Rα/IL2Rγ receptor [5]): 1640 MFI | pSTAT3 MFI, CD8 T cells, 1 nM (unstimulated 1446) (IL10Rα/IL2Rγ receptor [5]): 3280 MFI | pSTAT3 MFI, CD8 T cells, 10 nM (unstimulated 1446) (IL10Rα/IL2Rγ receptor [5]): 4610 MFI | pSTAT3 MFI, CD8 T cells, 100 nM (unstimulated 1446) (IL10Rα/IL2Rγ receptor [5]): 4400 MFI | pSTAT3 MFI, Monocytes, 0.0001 nM (unstimulated 2116) (IL10Rα/IL2Rγ receptor [6]): 2010 MFI | pSTAT3 MFI, Monocytes, 0.001 nM (unstimulated 2116) (IL10Rα/IL2Rγ receptor [6]): 2030 MFI | pSTAT3 MFI, Monocytes, 0.01 nM (unstimulated 2116) (IL10Rα/IL2Rγ receptor [6]): 2000 MFI | pSTAT3 MFI, Monocytes, 0.1 nM (unstimulated 2116) (IL10Rα/IL2Rγ receptor [6]): 1990 MFI | pSTAT3 MFI, Monocytes, 1 nM (unstimulated 2116) (IL10Rα/IL2Rγ receptor [6]): 2030 MFI | pSTAT3 MFI, Monocytes, 10 nM (unstimulated 2116) (IL10Rα/IL2Rγ receptor [6]): 2230 MFI | pSTAT3 MFI, Monocytes, 100 nM (unstimulated 2116) (IL10Rα/IL2Rγ receptor [6]): 2210 MFI
B1: DR471(DR241-DR231) (bispecific antibody)
chain: QVQLQESGGGSVQAGGSLRLSCAASGYSNCSYDMTWYRQAPGKEREFVSAIHSDGSTRYADSVKGRFFISQDNAKNTVYLQMNSLKPEDTAMYYCKTDPLHCRAHGGSWYSVRANYWGQGTQVTVSSGGGSQVQLQESGGGSVQAGGSLRLSCTASGFTFDDREMNWYRQAPGNECELVSTISSDGSTYYADSVKGRFTISQDNAKNTVYLQMDSVKPEDTAVYYCAADFMIAIQAPGAGCWGQGTQVTVSSASHHHHHH
